Assay results published in publication PMC4369318.

Target: protective antigen (PA63 as LTx) in plasma or serum of subjects with inhalation anthrax (Bacillus anthracis (secreted during infection of rhesus macaques and humans))
Test: co-IP

Chain of protective antigen (PA63 as LTx) in plasma or serum of subjects with inhalation anthrax (Bacillus anthracis (secreted during infection of rhesus macaques and humans)) (P13423 30-764): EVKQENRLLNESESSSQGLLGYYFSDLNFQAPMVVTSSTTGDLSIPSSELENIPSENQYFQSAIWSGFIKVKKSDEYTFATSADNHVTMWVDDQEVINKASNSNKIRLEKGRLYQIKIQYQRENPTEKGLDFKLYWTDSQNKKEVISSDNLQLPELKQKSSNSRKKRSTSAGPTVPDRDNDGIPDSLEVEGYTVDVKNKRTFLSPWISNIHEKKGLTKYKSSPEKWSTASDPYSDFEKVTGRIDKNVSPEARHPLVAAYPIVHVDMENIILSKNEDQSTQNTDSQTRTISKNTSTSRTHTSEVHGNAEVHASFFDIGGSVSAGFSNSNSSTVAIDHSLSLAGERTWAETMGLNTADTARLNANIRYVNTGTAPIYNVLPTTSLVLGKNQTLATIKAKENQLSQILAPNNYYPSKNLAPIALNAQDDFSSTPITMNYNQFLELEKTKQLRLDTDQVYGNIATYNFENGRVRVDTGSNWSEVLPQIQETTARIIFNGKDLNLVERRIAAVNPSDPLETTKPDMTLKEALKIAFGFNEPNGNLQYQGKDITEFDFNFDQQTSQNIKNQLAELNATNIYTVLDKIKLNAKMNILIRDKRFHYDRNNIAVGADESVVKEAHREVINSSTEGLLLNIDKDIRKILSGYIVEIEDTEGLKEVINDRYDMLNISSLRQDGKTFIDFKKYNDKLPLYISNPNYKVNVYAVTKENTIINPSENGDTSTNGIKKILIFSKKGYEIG

lethal factor (LF) in plasma or serum of subjects with inhalation anthrax (from UniProt P15917 34-809) (enzyme)
LTx as percent of total LF (animal 16N, terminal stage): 100%
LTx as percent of total LF (animal 89N, terminal stage): 60%
